We go through one molecule from paper doi:10.1101/2021.07.23.453469 (bioRxiv, 2021).

This test concerns the target T1, outer-capsid protein σ3 on T3SA- virions (reovirus strain T1L, UniProt P07939 1-365).
T1 sequence (looked up): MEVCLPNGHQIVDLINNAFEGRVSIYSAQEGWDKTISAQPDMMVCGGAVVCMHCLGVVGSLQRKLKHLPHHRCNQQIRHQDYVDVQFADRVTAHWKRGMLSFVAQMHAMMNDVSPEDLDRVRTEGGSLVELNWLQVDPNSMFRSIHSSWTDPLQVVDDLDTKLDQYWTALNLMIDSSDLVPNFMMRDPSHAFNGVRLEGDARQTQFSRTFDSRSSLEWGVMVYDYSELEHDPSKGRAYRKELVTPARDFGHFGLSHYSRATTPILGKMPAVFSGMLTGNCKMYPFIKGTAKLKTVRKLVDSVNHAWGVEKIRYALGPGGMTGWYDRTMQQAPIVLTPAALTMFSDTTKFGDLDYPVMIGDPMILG
Briefly: cryo-EM structure.

B1: NgR1-His (domain or fragment, human, UniProt Q9BZR6 27-310, looked up)
chain: CPGACVCYNEPKVTTSCPQQGLQAVPVGIPAASQRIFLHGNRISHVPAASFRACRNLTILWLHSNVLARIDAAAFTGLALLEQLDLSDNAQLRSVDPATFHGLGRLHTLHLDRCGLQELGPGLFRGLAALQYLYLQDNALQALPDDTFRDLGNLTHLFLHGNRISSVPERAFRGLHSLDRLLLHQNRVAHVHPHAFRDLGRLMTLYLFANNLSALPTEALAPLRALQYLRLNDNPWVCDCRARPLWAWLQKFRGSSSEVPCSLPQRLAGRDLKRLAANDLQGCA
For the molecule B1, the binding result is “binds”.
